Experiments:
BxPC3 cells = assay: Effect of interferon gamma on cell death; assay type: cell-based; conditions: 0 ng/mL to 3.75 μg/mL, 18 hours
Experimental: BxPC3 cells (#CRL-1687, ATCC, Manassas Va.) were seeded in 96 well black, clear-flat bottom dishes at 5000 cells per well, and placed in at 37° C., 5% CO2 incubator. The following day, the cells were washed once with RPMI 1640 supplemented with 10% FBS and 1% Penicillin/Streptomyocin (complete culture media). The cells were then incubated for 18 hours with complete culture media containing different concentrations of recombinant human Interferon Gamma (IFNgamma) (carrier free) (Cat No: 570202, BioLegend, San Diego, Calif.) ranging from 0 ng/mL to 3.75 μg/mL.
After 18 hours, the media containing different concentrations of interferon gamma was replaced with complete culture media containing 1× CellTox Green (Cat No: G8731, Promega, Madison, Wis.). […] The CellTox Green fluorescence signal was measured at 24.5 hours after light treatment using a fluorescence plate reader. The cells were then lysed with detergent, incubated at 37° C. for 30 minutes, and the CellTox Green fluorescence signal was measured again post lysis. The percent dead cells was calculated by taking the ratio between background (1× CellTox Green in complete culture media without cells) subtracted CellTox Green signal per well prior to and post lysis and multiplying the ratio by 100.

PD-L1 = assay: Effect of interferon gamma on PD-L1 expression, flow cytometry; assay type: cell-based; conditions: 375 pg/mL, 37.5 ng/mL, 18 hours; BxPC3 cells
Experimental: BxPC3 cells were seeded in 12 well dishes at 145,000 cells per well, and placed at 37° C. in a 5% CO2 incubator. The following day, the cells were washed once with RPMI 1640 supplemented with 10% FBS and 1% Penicillin/Streptomyocin (complete culture media). The cells were then incubated for 18 hours with complete culture media alone, complete culture media containing 375 pg/mL of recombinant human Interferon Gamma (carrier free) (Cat No: 570202, BioLegend, San Diego, Calif.), or complete culture media containing 37.5 ng/mL recombinant human Interferon Gamma (carrier free). After the 18 hour incubation with or without recombinant interferon gamma, the BxPC3 cells were washed one time with complete culture media. […]
After the one hour incubation, the cells were washed three times with phosphate buffer saline (pH 7) and incubated with enzyme free cell dissociation buffer (Catalog No: S-014-C, EMD Millipore, Billerica, Mass.) until cells were detached. After the cells detached, phosphate buffer saline containing 0.5% bovine serum albumin fraction V (Catalog No: 15260-037, ThermoFisher Scientific, Waltham, Mass.) was added to the cells, and the samples were immediately analyzed by flow cytometry for PD-L1 expression based on the fluorescent signal from the IR700 dye of the anti-PD-L1-IRDye 700DX. […]

B1: IFNgamma: recombinant human Interferon Gamma (carrier free) (protein, UniProt P01579 24-161, looked up)
Interferon gamma: QDPYVKEAENLKKYFNAGHSDVADNGTLFLGILKNWKEESDRKIMQSQIVSFYFKLFKNFKDDQSIQKSVETIKEDMNVKFFNSNKKKRDDFEKLTNYSVTDLNVQRKAIHELIQVMAELSPAAKTGKRKRSQMLFRG
- cell death (BxPC3 cells): dose-dependent increase in cell death
- PD-L1 expression (PD-L1): dose-dependent increase in PD-L1 expression
